The target in assay [1] is Rhesus monkey glycophorin A on Rhesus monkey red blood cells (Rhesus monkey). Put plainly: FACS, RBC Rh03. (In general: Flow cytometry measures light scatter and fluorescence of single cells or particles in a stream.)
The target in assay [2] is Cynomolgus monkey glycophorin A on Cynomolgus monkey red blood cells (Cynomolgus monkey). Kind of assay: FACS, RBC Cy01.
Assay [3] has as its target Rhesus monkey glycophorin A on Rhesus monkey red blood cells (Rhesus monkey). Put plainly: FACS, RBC Rh01.
Assay [4] addresses Cynomolgus monkey glycophorin A on Cynomolgus monkey red blood cells (Cynomolgus monkey). Put plainly: FACS, RBC Cy02.
In assay [5] the target is Rhesus monkey glycophorin A on Rhesus monkey red blood cells (Rhesus monkey). Put plainly: FACS, RBC Rh02.
Assay [6] concerns the target endogenous Cynomolgus monkey FVIII in whole blood (Cynomolgus monkey). Put plainly: cell-based or functional assay.

Chain of Rhesus monkey glycophorin A on Rhesus monkey red blood cells (Rhesus monkey) (chain, as listed by the source, form in doubt): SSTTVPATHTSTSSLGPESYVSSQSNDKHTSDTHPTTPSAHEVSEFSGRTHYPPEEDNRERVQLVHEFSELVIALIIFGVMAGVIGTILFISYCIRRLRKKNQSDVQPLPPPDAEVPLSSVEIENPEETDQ
Chain of endogenous Cynomolgus monkey FVIII in whole blood (Cynomolgus monkey) (chain, as listed by the source): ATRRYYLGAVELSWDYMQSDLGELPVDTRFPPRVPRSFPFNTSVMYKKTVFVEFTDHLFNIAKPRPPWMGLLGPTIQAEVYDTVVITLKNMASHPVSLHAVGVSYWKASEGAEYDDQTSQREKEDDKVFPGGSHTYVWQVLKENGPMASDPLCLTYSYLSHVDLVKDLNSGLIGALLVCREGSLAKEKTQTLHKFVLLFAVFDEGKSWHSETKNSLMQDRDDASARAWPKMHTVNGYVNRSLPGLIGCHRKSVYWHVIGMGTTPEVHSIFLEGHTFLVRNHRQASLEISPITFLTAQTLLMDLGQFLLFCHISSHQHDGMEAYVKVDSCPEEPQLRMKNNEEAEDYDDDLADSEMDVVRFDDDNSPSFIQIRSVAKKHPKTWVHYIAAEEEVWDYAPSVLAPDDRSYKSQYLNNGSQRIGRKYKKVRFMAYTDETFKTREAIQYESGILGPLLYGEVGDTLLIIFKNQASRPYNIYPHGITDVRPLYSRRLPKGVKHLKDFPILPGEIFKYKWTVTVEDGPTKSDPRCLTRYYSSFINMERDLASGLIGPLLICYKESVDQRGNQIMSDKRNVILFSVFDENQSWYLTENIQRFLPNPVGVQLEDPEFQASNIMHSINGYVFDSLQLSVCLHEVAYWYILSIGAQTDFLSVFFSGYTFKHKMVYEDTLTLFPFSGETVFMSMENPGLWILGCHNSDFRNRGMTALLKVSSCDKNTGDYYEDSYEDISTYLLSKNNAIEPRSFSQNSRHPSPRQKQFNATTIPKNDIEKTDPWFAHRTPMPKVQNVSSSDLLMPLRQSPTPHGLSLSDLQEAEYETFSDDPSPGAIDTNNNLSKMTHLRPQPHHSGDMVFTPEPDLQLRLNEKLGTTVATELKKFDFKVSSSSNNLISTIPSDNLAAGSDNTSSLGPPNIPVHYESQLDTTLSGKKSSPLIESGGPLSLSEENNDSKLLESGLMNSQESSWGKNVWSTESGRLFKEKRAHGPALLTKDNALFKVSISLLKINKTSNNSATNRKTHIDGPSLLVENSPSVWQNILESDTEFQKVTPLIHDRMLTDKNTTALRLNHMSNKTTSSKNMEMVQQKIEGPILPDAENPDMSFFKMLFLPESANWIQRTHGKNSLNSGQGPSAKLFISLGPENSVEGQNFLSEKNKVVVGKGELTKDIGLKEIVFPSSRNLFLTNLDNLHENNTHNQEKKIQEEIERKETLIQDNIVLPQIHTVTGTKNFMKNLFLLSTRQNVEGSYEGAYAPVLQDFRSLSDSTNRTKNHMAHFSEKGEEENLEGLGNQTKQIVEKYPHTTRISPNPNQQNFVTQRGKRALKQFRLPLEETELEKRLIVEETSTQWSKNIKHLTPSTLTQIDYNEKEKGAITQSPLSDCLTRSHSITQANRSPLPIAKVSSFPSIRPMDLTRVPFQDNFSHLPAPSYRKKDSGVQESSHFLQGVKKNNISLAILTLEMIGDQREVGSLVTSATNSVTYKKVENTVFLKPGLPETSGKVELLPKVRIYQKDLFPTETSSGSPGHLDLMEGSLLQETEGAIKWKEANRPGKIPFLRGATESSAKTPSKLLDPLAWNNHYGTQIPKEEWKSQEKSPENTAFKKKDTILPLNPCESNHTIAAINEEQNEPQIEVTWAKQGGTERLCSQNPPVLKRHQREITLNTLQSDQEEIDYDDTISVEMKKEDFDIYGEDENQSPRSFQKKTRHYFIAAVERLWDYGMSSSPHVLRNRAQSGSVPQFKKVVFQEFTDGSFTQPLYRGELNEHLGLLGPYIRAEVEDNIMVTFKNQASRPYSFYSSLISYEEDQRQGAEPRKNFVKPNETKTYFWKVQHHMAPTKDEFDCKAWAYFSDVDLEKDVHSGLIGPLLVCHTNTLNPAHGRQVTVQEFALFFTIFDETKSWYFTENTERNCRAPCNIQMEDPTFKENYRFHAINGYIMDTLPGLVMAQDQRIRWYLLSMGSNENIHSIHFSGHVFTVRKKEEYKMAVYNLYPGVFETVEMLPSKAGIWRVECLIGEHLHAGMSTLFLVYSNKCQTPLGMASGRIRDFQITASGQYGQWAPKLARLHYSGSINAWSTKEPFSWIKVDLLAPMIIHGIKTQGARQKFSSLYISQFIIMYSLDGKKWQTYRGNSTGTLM

As to Hu igG isotype (antibody), the fluorescence intensity came to 2 in assay [1]; 2 in assay [2]; 2 in assay [3]; 3 in assay [4]; 2 in assay [5].
With “anti-FVIII neutralizing monoclonal antibody BO2C11”, the Hemochron aPTT clotting time, Cyno whole blood in assay [6] was 180 s.
